The values below come from patent US20090123572.

The target in data set [1] is T1, recombinant squamous cell carcinoma antigen 1 (SCCA-1), P29508.
T1 chain: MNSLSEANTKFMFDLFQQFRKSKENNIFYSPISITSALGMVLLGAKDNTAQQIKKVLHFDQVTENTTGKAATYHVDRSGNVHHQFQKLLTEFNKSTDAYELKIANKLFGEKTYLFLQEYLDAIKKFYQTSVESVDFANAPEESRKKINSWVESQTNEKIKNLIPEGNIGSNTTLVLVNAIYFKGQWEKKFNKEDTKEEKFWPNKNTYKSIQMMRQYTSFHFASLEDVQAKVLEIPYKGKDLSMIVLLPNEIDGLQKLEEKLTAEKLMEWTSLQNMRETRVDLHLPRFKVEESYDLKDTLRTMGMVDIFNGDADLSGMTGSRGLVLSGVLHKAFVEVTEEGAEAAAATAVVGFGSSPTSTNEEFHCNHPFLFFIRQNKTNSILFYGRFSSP

For data set [2], the target named is T2, recombinant ICAD protein, O00273.
T2 chain: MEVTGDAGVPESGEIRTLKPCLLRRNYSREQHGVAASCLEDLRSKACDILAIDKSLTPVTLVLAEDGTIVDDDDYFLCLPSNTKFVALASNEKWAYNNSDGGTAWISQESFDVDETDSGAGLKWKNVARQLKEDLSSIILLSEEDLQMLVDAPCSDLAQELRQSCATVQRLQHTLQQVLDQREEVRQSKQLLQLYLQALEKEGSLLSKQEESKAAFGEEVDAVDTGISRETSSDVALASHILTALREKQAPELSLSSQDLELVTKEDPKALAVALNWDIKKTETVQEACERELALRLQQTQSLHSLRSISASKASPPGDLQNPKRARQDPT

B1: recombinant caspase-8 (protein)
chain: SESQTLDKVYQMKSKPRGYCLIINNHNFAKAREKVPKLHSIRDRNGTHLDAGALTTTFEELHFEIKPHDDCTVEQIYEILKIYQLMDHSNMDCFICCILSHGDKGIIYGTDGQEAPIYELTSQFTGLKCPSLAGKPKVFFIQACQGDNYQKGIPVETDSEEQPYLEMDLSSPQTRYIPDEADFLLGMATVNNCVSYRNPAEGTWYIQSLCQSLRERCPRGDDILTILTEVNYEVSNKDDKKNMGKQMPQPTFTLRKKLVFPSD
For the protein B1, the “enzyme activity of recombinant caspase incubated with SCCA-1 (synthetic caspase substrates)” value (from here on “enzyme activity”) in data set [1] was “None of the caspase members (1 to 10) were affected with respect to enzyme activity when recombinant caspase was incubated with SCCA-1”.

B2: recombinant caspase-4 (protein)
chain: QISPNKKAHPNMEAGPPESGESTDALKLCPHEEFLRLCKERAEEIYPIKERNNRTRLALIICNTEFDHLPPRNGADFDITGMKELLEGLDYSVDVEENLTARDMESALRAFATRPEHKSSDSTFLVLMSHGILEGICGTVHDEKKPDVLLYDTIFQIFNNRNCLSLKDKPKVIIVQACRGANRGELWVRDSPASLEVASSQSSENLEEDAVYKTHVEKDFIAFCSSTPHNVSWRDSTMGSIFITQLITCFQKYSWCCHLEEVFRKVQQSFETPRAKAQMPTIERLSMTRYFYLFPGN
B2: the “enzyme activity” value in data set [1] is “None of the caspase members (1 to 10) were affected with respect to enzyme activity when recombinant caspase was incubated with SCCA-1”.

B3: recombinant caspase-6 (protein)
chain: AFYKREMFDPAEKYKMDHRRRGIALIFNHERFFWHLTLPERRGTCADRDNLTRRFSDLGFEVKCFNDLKAEELLLKIHEVSTVSHADADCFVCVFLSHGEGNHIYAYDAKIEIQTLTGLFKGDKCHSLVGKPKIFIIQACRGNQHDVPVIPLDVVDNQTEKLDTNITEVDAASVYTLPAGADFLMCYSVAEGYYSHRETVNGSWYIQDLCEMLGKYGSSLEFTELLTLVNRKVSQRRVDFCKDPSAIGKKQVPCFASMLTKKLHFFPKSN
For B3, the “enzyme activity” value in data set [1] is listed as “None of the caspase members (1 to 10) were affected with respect to enzyme activity when recombinant caspase was incubated with SCCA-1”.

B4: recombinant caspase-10 (protein)
chain: VKTFLEALPQESWQNKHAGSNGNRATNGAPSLVSRGMQGASANTLNSETSTKRAAVYRMNRNHRGLCVIVNNHSFTSLKDRQGTHKDAEILSHVFQWLGFTVHIHNNVTKVEMEMVLQKQKCNPAHADGDCFVFCILTHGRFGAVYSSDEALIPIREIMSHFTALQCPRLAEKPKLFFIQACQGEEIQPSVSIEADALNPEQAPTSLQDSIPAEADFLLGLATVPGYVSFRHVEEGSWYIQSLCNHLKKLVPRMLKFLEKTMEIRGRKRTVWGAKQISATSLPTAISAQTPRPPMRRWSSVS
For B4, the “enzyme activity” value in data set [1] was “None of the caspase members (1 to 10) were affected with respect to enzyme activity when recombinant caspase was incubated with SCCA-1”.

B5: recombinant caspase-3 (protein)
chain: SGISLDNSYKMDYPEMGLCIIINNKNFHKSTGMTSRSGTDVDAANLRETFRNLKYEVRNKNDLTREEIVELMRDVSKEDHSKRSSFVCVLLSHGEEGIIFGTNGPVDLKKITNFFRGDRCRSLTGKPKLFIIQACRGTELDCGIETDSGVDDDMACHKIPVEADFLYAYSTAPGYYSWRNSKDGSWFIQSLCAMLKQYADKLEFMHILTRVNRKVATEFESFSFDATFHAKKQIPCIVSMLTKELYFYH
Consider B5, for which, in data set [1], the “caspase-3 activity on the synthetic substrate DEVD-MCA or the natural substrate ICAD” value is “SCCA-1 did not inhibit caspase-3 activity using the synthetic substrate DEVD-MCA or the natural substrate ICAD” and the “enzyme activity” value was “None of the caspase members (1 to 10) were affected with respect to enzyme activity when recombinant caspase was incubated with SCCA-1”.

B6: purified caspase-14 from human cornified cells (heterodimer of 17 KDa large subunit and 11 KDa small subunit) (protein)
chain 1: SLEEEKYDMSGARLALILCVTKAREGSEEDLDALEHMFRQLRFESTMKRDPTAEQFQEELEKFQQAIDSREDPVSCAFVVLMAHGREGFLKGEDGEMVKLENLFEALNNKNCQALRAKPKVYIIQACRGEQRDPGETVGGD
chain 2: KDSPQTIPTYTDALHVYSTVEGYIAYRHDQKGSCFIQTLVDVFTKRKGHILELLTEVTRRMAEAELVQEGKARKTNPEIQSTLRKRLYLQ
With B6, in data set [2], the “ICAD cleavage products (Western blot with FL331 antibody)” value was “Cleavage products were observed at 33 and 27 KDa”; the “decomposition of recombinant ICAD in the presence of kosmotropic salt (Western blot with anti-ICAD IgG)” value was “since the amount of intact ICAD protein decreases and two major decomposition products increase in the presence of kosmotropic salt, purified caspase-14 demonstrated limited decomposing action on ICAD”; the “fragments formed from ICAD; sequence analysis of the cleavage sites” value is “caspase-14 formed fragments resembling 12 KDa and 35 KDa from ICAD. Sequence analysis indicated identical cleavage sites”; the “hydrolysis of recombinant ICAD in an ordinary caspase assay buffer (Western blot with anti-ICAD IgG)” value is on record as “purified caspase-14 did not demonstrate any hydrolysis activity on ICAD”.

B7: recombinant caspase-7 (protein)
chain: AKPDRSSFVPSLFSKKKKNVTMRSIKTTRDRVPTYQYNMNFEKLGKCIIINNKNFDKVTGMGVRNGTDKDAEALFKCFRSLGFDVIVYNDCSCAKMQDLLKKASEEDHTNAACFACILLSHGEENVIYGKDGVTPIKDLTAHFRGDRCKTLLEKPKLFFIQACRGTELDDGIQADSGPINDTDANPRYKIPVEADFLFAYSTVPGYYSWRSPGRGSWFVQALCSILEEHGKDLEIMQILTRVNDRVARHFESQSDDPHFHEKKQIPCVVSMLTKELYFSQ
As to B7, the “enzyme activity” value in data set [1] is listed as “None of the caspase members (1 to 10) were affected with respect to enzyme activity when recombinant caspase was incubated with SCCA-1”.

B8: recombinant caspase-9 (protein)
chain: GALESLRGNADLAYILSMEPCGHCLIINNVNFCRESGLRTRTGSNIDCEKLRRRFSSLHFMVEVKGDLTAKKMVLALLELAQQDHGALDCCVVVILSHGCQASHLQFPGAVYGTDGCPVSVEKIVNIFNGTSCPSLGGKPKLFFIQACGGEQKDHGFEVASTSPEDESPGSNPEPDATPFQEGLRTFDQLDAISSLPTPSDIFVSYSTFPGFVSWRDPKSGSWYVETLDDIFEQWAHSEDLQSLLLRVANAVSVKGIYKQMPGCFNFLRKKLFFKTS
For the protein B8, the “enzyme activity” value in data set [1] is listed as “None of the caspase members (1 to 10) were affected with respect to enzyme activity when recombinant caspase was incubated with SCCA-1”.

B9: recombinant caspase-1 (protein)
chain: NPAMPTSSGSEGNVKLCSLEEAQRIWKQKSAEIYPIMDKSSRTRLALIICNEEFDSIPRRTGAEVDITGMTMLLQNLGYSVDVKKNLTASDMTTELEAFAHRPEHKTSDSTFLVFMSHGIREGICGKKHSEQVPDILQLNAIFNMLNTKNCPSLKDKPKVIIIQACRGDSPGVVWFKDSVGVSGNLSLPTTEEFEDDAIKKAHIEKDFIAFCSSTPDNVSWRHPTMGSVFIGRLIEHMQEYACSCDVEEIFRKVRFSFEQPDGRAQMPTTERVTLTRCFYLFPGH
As to B9, the “enzyme activity” value in data set [1] is recorded as “None of the caspase members (1 to 10) were affected with respect to enzyme activity when recombinant caspase was incubated with SCCA-1”.

B10: recombinant caspase-2 (protein)
chain: GPVCLQVKPCTPEFYQTHFQLAYRLQSRPRGLALVLSNVHFTGEKELEFRSGGDVDHSTLVTLFKLLGYDVHVLCDQTAQEMQEKLQNFAQLPAHRVTDSCIVALLSHGVEGAIYGVDGKLLQLQEVFQLFDNANCPSLQNKPKMFFIQACRGDETDRGVDQQDGKNHAGSPGCEESDAGKEKLPKMRLPTRSDMICGYACLKGTAAMRNTKRGSWYIEALAQVFSERACDMHVADMLVKVNALIKDREGYAPGTEFHRCKEMSEYCSTLCRHLYLFPGHPPT
For the protein B10, the “enzyme activity” value in data set [1] is on record as “None of the caspase members (1 to 10) were affected with respect to enzyme activity when recombinant caspase was incubated with SCCA-1”.

B11: recombinant caspase-5 (protein)
chain: DQKITSVKPLLQIEAGPPESAESTNILKLCPREEFLRLCKKNHDEIYPIKKREDRRRLALIICNTKFDHLPARNGAHYDIVGMKRLLQGLGYTVVDEKNLTARDMESVLRAFAARPEHKSSDSTFLVLMSHGILEGICGTAHKKKKPDVLLYDTIFQIFNNRNCLSLKDKPKVIIVQACRGEKHGELWVRDSPASLALISSQSSENLEADSVCKIHEEKDFIAFCSSTPHNVSWRDRTRGSIFITELITCFQKYSCCCHLMEIFRKVQKSFEVPQAKAQMPTIERATLTRDFYLFPGN
For the protein B11, in data set [1], the “enzyme activity” value is reported as “None of the caspase members (1 to 10) were affected with respect to enzyme activity when recombinant caspase was incubated with SCCA-1”.
